Assay results as given in patent US9835633.

Biological target: human apolipoprotein E4
Sequence (chain, as listed by the source): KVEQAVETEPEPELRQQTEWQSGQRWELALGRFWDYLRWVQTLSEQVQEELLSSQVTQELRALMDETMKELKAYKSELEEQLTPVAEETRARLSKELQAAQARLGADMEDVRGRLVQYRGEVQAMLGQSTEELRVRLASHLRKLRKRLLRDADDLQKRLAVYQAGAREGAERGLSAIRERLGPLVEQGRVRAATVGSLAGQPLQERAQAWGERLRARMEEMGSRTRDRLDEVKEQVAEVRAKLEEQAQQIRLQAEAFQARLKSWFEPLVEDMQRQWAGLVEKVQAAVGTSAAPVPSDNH

B1: endogenous PCSK1 of NSE-apoE4 mouse neurons/brain (protein)
chain: SVQKDSALDLFNDPMWNQQWYLQDTRMTAALPKLDLHVIPVWEKGITGKGVVITVLDDGLEWNHTDIYANYDPEASYDFNDNDHDPFPRYDLTNENKHGTRCAGEIAMQANNHKCGVGVAYNSKVGGIRMLDGIVTDAIEASSIGFNPGHVDIYSASWGPNDDGKTVEGPGRLAQKAFEYGVKQGRQGKGSIFVWASGNGGRQGDNCDCDGYTDSIYTISISSASQQGLSPWYAEKCSSTLATSYSSGDYTDQRITSADLHNDCTETHTGTSASAPLAAGIFALALEANPNLTWRDMQHLVVWTSEYDPLASNPGWKKNGAGLMVNSRFGFGLLNAKALVDLADPRTWRNVPEKKECVVKDNNFEPRALKANGEVIVEIPTRACEGQENAIKSLEHVQFEATIEYSRRGDLHVTLTSAVGTSTVLLAERERDTSPNGFKNWDFMSVHTWGENPVGTWTLKITDMSGRMQNEGRIVNWKLILHGTSSQPEHMKQPRVYTSYNTVQNDRRGVEKMVNVVEKRPTQKSLNGNLLVPKNSSSSNVEGRRDEQVQGTPSKAMLRLLQSAFSKNALSKQSPKKSPSAKLSIPYESFYEALEKLNKPSKLEGSEDSLYSDYVDVFYNTKPYKHRDDRLLQALMDILNEEN
apoE fragmentation by western blot in brains of PCSK1 null, NSE-apoE4 pups: a significant decrease in apoE fragmentation was observed in PCSK1 null, NSE-apoE4 brains compared to that of PCSK1 WT, NSE-apoE4 brains
apoE fragmentation in NSE-apoE4 primary neurons after shRNA knockdown: knocking down either PCSK1 or PCSK2 in NSE-apoE4 primary neurons decreased apoE fragmentation
apoE fragmentation in PCSK1 null primary neurons: A decrease of apoE fragmentation was observed in PCSK1 null primary neurons compared to PCSK1 wild-type (WT) neurons

B2: endogenous PCSK2 of NSE-apoE4 mouse neurons/brain (protein)
chain: GYRDINEIDINMNDPLFTKQWYLFNTGQADGTPGLDLNVAEAWELGYTGKGVTIGIMDDGIDYLHPDLAYNYNADASYDFSSNDPYPYPRYTDDWFNSHGTRCAGEVSAAASNNICGVGVAYNSKVAGIRMLDQPFMTDIIEASSISHMPQLIDIYSASWGPTDNGKTVDGPRELTLQAMADGVNKGRGGKGSIYVWASGDGGSYDDCNCDGYASSMWTISINSAINDGRTALYDESCSSTLASTFSNGRKRNPEAGVATTDLYGNCTLRHSGTSAAAPEAAGVFALALEANLDLTWRDMQHLTVLTSKRNQLHDEVHQWRRNGVGLEFNHLFGYGVLDAGAMVKMAKDWKTVPERFHCVGGSVQNPEKIPPTGKLVLTLKTNACEGKENFVRYLEHVQAVITVNATRRGDLNINMTSPMGTKSILLSRRPRDDDSKVGFDKWPFMTTHTWGEDARGTWTLELGFVGSAPQKGLLKEWTLMLHGTQSAPYIDQVVRDYQSKLAMSKKQELEEELDEAVERSLQSILRKN
apoE fragmentation after PCSK2 shRNA in PCSK1 null and PCSK1 WT primary neurons: PCSK2 shRNAs or 7B2 shRNAs decrease apoE fragmentation in PCSK1 null, primary neurons as well as in PCSK1 WT primary neurons
apoE fragmentation in NSE-apoE4 primary neurons after shRNA knockdown: knocking down either PCSK1 or PCSK2 in NSE-apoE4 primary neurons decreased apoE fragmentation
